From patent publication US20050064507A1, “Determining kinase specificity” (priority 2003, published 2005)

The substances below were run against T1, PKC-alpha (Homo sapiens, UniProt P17252) (assay: In vitro kinase assay: peptide phosphorylation by PKC-alpha). Conditions: normalized to best substrate.
T1 construct: purchased Calbiochem
Format: biochemical
Experimental: (§1) Catalytically active preparations of the kinases of interest were either purchased or prepared. Purchased and tested active kinase preparations including the following: PKC-alpha, PKC-delta, PKC-epsilon, PKC-zeta, PKC-mu, PKA, PKG from Calbiochem, ROK alpha/ROCK-II, active from Upstate Biotechnology, and AKT1 from Panvera.
(§2) The conditions of the kinase assay and the amount of active kinase used varied with the kinase and with the accuracy needed. For a typical experiment, 5-20 ng of kinase was used per well and each peptide pool was assayed in duplicate wells. Note that the absolute amount of kinase used was not usually a critical parameter, because the desired information related to specificity of the kinase not its absolute activity, and robustness of the assay depends on comparisons of the same amount of kinase on different peptides. The combination of kinase concentration and assay duration was modified to assure that the stoichiometry of peptide phosphorylation never exceeded 5%. The choice of kinase buffer depended on the kinase being analyzed. For studies of PKC, 100 mM HEPES, 0.05% Triton-X100, 1 mM CaCl2, 20 mM MgCl2, 0.2 mg/ml phosphatidyl serine (Avanti Polar Lipids), PMA 100 ng/ml was typically used. The lipid stock was prepared by transferring 3 mg phosphatidyl serine into iced mixture of 450 μl water plus 50 μl of 10% Triton-X100, sonicating 10 times on ice for 1 sec each.
(§3) The kinase reaction mixture was assembled by sequential addition to a tube held on ice of: 5 μl peptide (100 μM for final concentration of 10 μM), 15 μl of kinase (typically 5 ng/well, in appropriate kinase buffer), 30 μl of ATP (1 uCi/well of ^32P-gamma ATP in a stock of 167 μM cold ATP in the kinase buffer; for final concentration for 100 μM ATP). The mixture was rapidly warmed to desired reaction temperature (30° C. for PKC) and incubated for the desired duration (usually 10 minutes). The kinase assay was terminated by transfer to 4° C. water batch, and rapid addition of an equal volume (50 μl) of stop solution [0.1M ATP+0.1M EDTA in water, pH 8].
(§4) The peptides were then captured from the reaction mixture by transfer to a Reacti-Bind Streptavidin High Binding Capacity Coated Plates (HBC) (Pierce Biotechnology) as follows. The HBC plates were pre-rinsed three times with PBS/Tween PBS/Tween20 0.05% (PBS/Tween). Part of all of the reaction mixture was then transferred wells of a HBC plate pre-filled with 90 μl of phosphate-buffered saline (PBS); typically each aliquots of each phosphorylation reaction were transferred to duplicate HBC plates to assure accuracy by additional replication
(§5) For kinase assays done at the standard peptide concentration of 10 μM, the peptide concentration in the reaction mixture becomes 5 μM after addition of the stop solution; consequently 10 μl of the reaction (50 pMoles of peptide) was transferred to the HBC plate. More generally, the amount of reaction mixture transferred was estimated to be about 50 pMoles of peptide. […] The HBC plates were incubated for 0.5 to 1.5 hr at room temperature for complete binding of biotinylated peptides to plate-bound streptavidin. The HBC plates were then washed extensively with PBS/Tween. Five washes were done routinely and additional wash steps were added if the wash solution removed from the plate had measurable radioactivity as detected using a Geiger counter. This step is essential to obtaining a good the signal to noise ratio because the fraction of radioactivity incorporated in the peptides was a tiny fraction of the total in the reaction mixture. The wells were air-dried. A volume of 40-50 μl of microScint-20 (Packard Instruments) was added to each well. The plates were covered with stick-on film sheet. Radioactive emissions were measured in a TopCount NXT Microplate Scintillation and Luminescence Counter (Packard Instruments). Typically samples were counted for 5 minutes (or more) to improve the signal to noise ratio when counts were low. […]

Row | Substance | PKC alpha phosphorylation [%]
1 | 76 (HVRRRRGTFKRSKLRARD) [compound 76] | 62
2 | 92 (DGQKRKKSLRKKLD) [compound 92] | 36
3 | 93 (AARKKRISVKKKQEQ) [compound 93] | 34
4 | 94 (KLAVGRHSFSRRSGV) [compound 94] | 34
5 | 95 (KKKFRTPSFLKKSKK) [compound 95] | 34
6 | 96 (RGFLRSASLGRRASFHLE) [compound 96] | 40
7 | 99 (AGWRKKTSFRKPKED) [compound 99] | 37
8 | 100 (WKGKRRSKARKKRK) [compound 100] | 14
9 | 101 (GAPPRRSSIRNAH) [compound 101] | 32
10 | 102 (AGSFKRNSIKKIV) [compound 102] | 35
11 | 103 (LLKKRDSFRTPRDSKLE) [compound 103] | 32
12 | 104 (EKIKRSSLKKVDSLKK) [compound 104] | 34
13 | 105 (ALRRPSLRREADD) [compound 105] | 26
14 | 106 (EILSRRPSYRKILND) [compound 106] | 23
15 | 107 (QKRHARVTVKYDRRE) [compound 107] | 18
16 | 108 (KATTKKRTLRKNDRK) [compound 108] | 19
17 | 109 (KEVVRTDSLKGRRGR) [compound 109] | 21
18 | 110 (EGGDRRASGRRK) [compound 110] | 30
19 | 111 (KKKRFSFKKSFKLSGFSFKK) [compound 111] | 11
20 | 112 (KRPGKKGSNKRPGKR) [compound 112] | 10
21 | 113 (GENVLKKSMKSRVKG) [compound 113] | 16

Same assay, conditions: peptide concentration 1 uM

Row | Substance | phosphorylation by PKC alpha
22 | 121 (LRRRSLRRSNSISKSPGP) [compound 121] | 33

Same assay, conditions: peptide concentration 10 uM

Row | Substance | phosphorylation by PKC alpha
23 | 121 (LRRRSLRRSNSISKSPGP) [compound 121] | 29

Each substance was assayed against T2, PKA (Homo sapiens, UniProt P17612) (assay: In vitro kinase assay: peptide phosphorylation by PKA). Conditions: normalized to best substrate.
T2 construct: purchased Calbiochem
Format: biochemical
Experimental: as §1, §2, §3, §4, §5

Row | Substance | PKA phosphorylation [%]
24 | 76 (HVRRRRGTFKRSKLRARD) [compound 76] | 69
25 | 92 (DGQKRKKSLRKKLD) [compound 92] | 18
26 | 93 (AARKKRISVKKKQEQ) [compound 93] | 1
27 | 94 (KLAVGRHSFSRRSGV) [compound 94] | 5
28 | 95 (KKKFRTPSFLKKSKK) [compound 95] | 2
29 | 96 (RGFLRSASLGRRASFHLE) [compound 96] | 86
30 | 99 (AGWRKKTSFRKPKED) [compound 99] | 1
31 | 100 (WKGKRRSKARKKRK) [compound 100] | 2
32 | 101 (GAPPRRSSIRNAH) [compound 101] | 100
33 | 102 (AGSFKRNSIKKIV) [compound 102] | 5
34 | 103 (LLKKRDSFRTPRDSKLE) [compound 103] | 3
35 | 104 (EKIKRSSLKKVDSLKK) [compound 104] | 1
36 | 105 (ALRRPSLRREADD) [compound 105] | 84
37 | 106 (EILSRRPSYRKILND) [compound 106] | 30
38 | 107 (QKRHARVTVKYDRRE) [compound 107] | 2
39 | 108 (KATTKKRTLRKNDRK) [compound 108] | 0
40 | 109 (KEVVRTDSLKGRRGR) [compound 109] | 1
41 | 110 (EGGDRRASGRRK) [compound 110] | 1
42 | 111 (KKKRFSFKKSFKLSGFSFKK) [compound 111] | 3
43 | 112 (KRPGKKGSNKRPGKR) [compound 112] | 0
44 | 113 (GENVLKKSMKSRVKG) [compound 113] | 0

These substances were tested against T3, AKT1 (Homo sapiens, UniProt P31749) (assay: In vitro kinase assay: peptide phosphorylation by AKT1). Conditions: normalized to best substrate.
T3 construct: purchased Panvera
T3 sequence (P31749 whole entry, species assumed): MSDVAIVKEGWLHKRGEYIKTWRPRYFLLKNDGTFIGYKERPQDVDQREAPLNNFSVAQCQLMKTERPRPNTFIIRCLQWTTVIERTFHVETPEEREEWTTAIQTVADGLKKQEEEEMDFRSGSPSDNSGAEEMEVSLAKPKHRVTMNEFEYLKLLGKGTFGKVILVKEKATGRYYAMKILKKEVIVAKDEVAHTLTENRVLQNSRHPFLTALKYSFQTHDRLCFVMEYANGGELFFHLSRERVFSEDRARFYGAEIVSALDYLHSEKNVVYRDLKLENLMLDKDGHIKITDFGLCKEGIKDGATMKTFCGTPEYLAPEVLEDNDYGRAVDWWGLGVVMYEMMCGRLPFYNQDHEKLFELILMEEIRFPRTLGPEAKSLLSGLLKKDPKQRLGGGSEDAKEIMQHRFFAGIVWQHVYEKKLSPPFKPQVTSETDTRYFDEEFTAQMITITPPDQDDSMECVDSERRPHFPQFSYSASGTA
Format: biochemical
Experimental: as §1, §2, §3, §4, §5

Row | Substance | AKT1 phosphorylation [%]
45 | 76 (HVRRRRGTFKRSKLRARD) [compound 76] | 100
46 | 92 (DGQKRKKSLRKKLD) [compound 92] | 2
47 | 93 (AARKKRISVKKKQEQ) [compound 93] | 7
48 | 94 (KLAVGRHSFSRRSGV) [compound 94] | 9
49 | 95 (KKKFRTPSFLKKSKK) [compound 95] | 9
50 | 96 (RGFLRSASLGRRASFHLE) [compound 96] | 32
51 | 99 (AGWRKKTSFRKPKED) [compound 99] | 6
52 | 100 (WKGKRRSKARKKRK) [compound 100] | 3
53 | 101 (GAPPRRSSIRNAH) [compound 101] | 12
54 | 102 (AGSFKRNSIKKIV) [compound 102] | 6
55 | 103 (LLKKRDSFRTPRDSKLE) [compound 103] | 7
56 | 104 (EKIKRSSLKKVDSLKK) [compound 104] | 2
57 | 105 (ALRRPSLRREADD) [compound 105] | 12
58 | 106 (EILSRRPSYRKILND) [compound 106] | 12
59 | 107 (QKRHARVTVKYDRRE) [compound 107] | 3
60 | 108 (KATTKKRTLRKNDRK) [compound 108] | 1
61 | 109 (KEVVRTDSLKGRRGR) [compound 109] | 2
62 | 110 (EGGDRRASGRRK) [compound 110] | 1
63 | 111 (KKKRFSFKKSFKLSGFSFKK) [compound 111] | 3
64 | 112 (KRPGKKGSNKRPGKR) [compound 112] | 3
65 | 113 (GENVLKKSMKSRVKG) [compound 113] | 9

What follows are substances tested on PKC (assay: In vitro phosphorylation by PKC (average of isoforms alpha, epsilon, delta, theta)). Conditions: average of PKC-alpha, -epsilon, -theta, normalized to best substrate.
Format: biochemical
Experimental: as §2, §3, §4
For kinase assays done at the standard peptide concentration of 10 μM, the peptide concentration in the reaction mixture becomes 5 μM after addition of the stop solution; consequently 10 μl of the reaction (50 pMoles of peptide) was transferred to the HBC plate. More generally, the amount of reaction mixture transferred was estimated to be about 50 pMoles of peptide. […] The HBC plates were incubated for 0.5 to 1.5 hr at room temperature for complete binding of biotinylated peptides to plate-bound streptavidin. The HBC plates were then washed extensively with PBS/Tween. Five washes were done routinely and additional wash steps were added if the wash solution removed from the plate had measurable radioactivity as detected using a Geiger counter. This step is essential to obtaining a good the signal to noise ratio because the fraction of radioactivity incorporated in the peptides was a tiny fraction of the total in the reaction mixture. The wells were air-dried. A volume of 40-50 μl of microScint-20 (Packard Instruments) was added to each well. The plates were covered with stick-on film sheet. Radioactive emissions were measured in a TopCount NXT Microplate Scintillation and Luminescence Counter (Packard Instruments). Typically samples were counted for 5 minutes (or more) to improve the signal to noise ratio when counts were low.
Many peptides that are good substrates for PKC enzymes were identified using the methods of the invention. For example, Tables 4 and 5 provide a listing of peptides identified as potentially useful kinase substrates. […]

Row | Substance | PKC average [%]
66 | 76 (HVRRRRGTFKRSKLRARD) [compound 76] | 91
67 | 92 (DGQKRKKSLRKKLD) [compound 92] | 38
68 | 93 (AARKKRISVKKKQEQ) [compound 93] | 37
69 | 94 (KLAVGRHSFSRRSGV) [compound 94] | 36
70 | 95 (KKKFRTPSFLKKSKK) [compound 95] | 33
71 | 96 (RGFLRSASLGRRASFHLE) [compound 96] | 33
72 | 99 (AGWRKKTSFRKPKED) [compound 99] | 27
73 | 100 (WKGKRRSKARKKRK) [compound 100] | 26
74 | 101 (GAPPRRSSIRNAH) [compound 101] | 23
75 | 102 (AGSFKRNSIKKIV) [compound 102] | 23
76 | 103 (LLKKRDSFRTPRDSKLE) [compound 103] | 22
77 | 104 (EKIKRSSLKKVDSLKK) [compound 104] | 22
78 | 105 (ALRRPSLRREADD) [compound 105] | 21
79 | 106 (EILSRRPSYRKILND) [compound 106] | 21
80 | 107 (QKRHARVTVKYDRRE) [compound 107] | 19
81 | 108 (KATTKKRTLRKNDRK) [compound 108] | 16
82 | 109 (KEVVRTDSLKGRRGR) [compound 109] | 16
83 | 110 (EGGDRRASGRRK) [compound 110] | 15
84 | 111 (KKKRFSFKKSFKLSGFSFKK) [compound 111] | 14
85 | 112 (KRPGKKGSNKRPGKR) [compound 112] | 12
86 | 113 (GENVLKKSMKSRVKG) [compound 113] | 10

Same assay, conditions: average over PKC-theta, -epsilon and -alpha at 10 and 1 uM peptide, relative to best substrate

Row | Substance | average (phosphorylation by PKC-theta, -delta, -epsilon, -alpha)
87 | 121 (LRRRSLRRSNSISKSPGP) [compound 121] | 50

The substances below were run on pPKC Ab (assay: pPKC Ab binding to peptides phosphorylated in vitro by PKC-theta). Conditions: not given.
Experimental: Synthetic peptides chosen from those shown in Table 4 were subjected to phosphorylation by PKC-theta, Assay conditions were similar to those described herein, except that the phosphorylation reaction was for 30 minutes at 30° C. and then overnight at 4° C. The reaction mixture was applied to HB avidin-coated plates, the plates washed, and then pPKC Ab binding assayed.

Row | Substance | pPKC Ab Signal on peptide without exposure to PKC-theta
88 | 76 (HVRRRRGTFKRSKLRARD) [compound 76] | 0.07
89 | 121 (LRRRSLRRSNSISKSPGP) [compound 121] | 0.02

Same assay, conditions: 30 minutes at 30° C. then overnight at 4° C.

Row | Substance | pPKC Ab Signal on peptide after exposure to PKC-theta phosphorylation
90 | 76 (HVRRRRGTFKRSKLRARD) [compound 76] | 1.02
91 | 121 (LRRRSLRRSNSISKSPGP) [compound 121] | 1.13

Same assay, conditions: difference after minus without exposure

Row | Substance | pPKC Ab Signal amount dependent on PKC phosphorylation
92 | 76 (HVRRRRGTFKRSKLRARD) [compound 76] | 0.95
93 | 121 (LRRRSLRRSNSISKSPGP) [compound 121] | 1.11
